Source: paper PMC9482650, “Quantitative fragmentomics allow affinity mapping of interactomes” (Nature Communications, 2022)

Tests used:
Assay in all cases: holdup assay
Parameters in all cases: key: below the threshold = too weak to quantify, mostly under pKd 3.1 to 4
DVL2, O14641 = molecular target: DVL2, O14641
IL16_2, Q14005 = molecular target: IL16_2, Q14005
MAGI3_4, Q5TCQ9 = molecular target: MAGI3_4, Q5TCQ9
MAGIX, Q9H6Y5 = molecular target: MAGIX, Q9H6Y5
MAST3, O60307 = molecular target: MAST3, O60307
MPDZ_3, O75970 = molecular target: T1, MPDZ_3, O75970
T1 sequence (O75970 372-473, limits assumed, looked up): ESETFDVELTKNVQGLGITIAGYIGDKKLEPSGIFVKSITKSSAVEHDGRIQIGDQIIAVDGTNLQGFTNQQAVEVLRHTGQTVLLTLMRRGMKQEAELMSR

MPP1, Q00013 = molecular target: T2, MPP1, Q00013
T2 sequence (Q00013 66-162, limits assumed, looked up): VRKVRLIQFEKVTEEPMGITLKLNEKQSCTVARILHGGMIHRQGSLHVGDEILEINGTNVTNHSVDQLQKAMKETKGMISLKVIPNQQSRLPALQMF

NHERF2_1, Q15599 = molecular target: NHERF2_1, Q15599
NHERF3_2, Q5T2W1 = molecular target: T3, NHERF3_2, Q5T2W1
T3 sequence (Q5T2W1 129-225, limits assumed, looked up): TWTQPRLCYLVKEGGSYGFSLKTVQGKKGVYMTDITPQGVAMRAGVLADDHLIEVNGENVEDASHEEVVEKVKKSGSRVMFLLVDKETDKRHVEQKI

NHERF4_3, Q86UT5 = molecular target: NHERF4_3, Q86UT5
PARD3B_2, Q8TEW8 = molecular target: PARD3B_2, Q8TEW8
PDZD2_1, O15018 = molecular target: T4, PDZD2_1, O15018
T4 sequence (O15018 80-192, limits assumed, looked up): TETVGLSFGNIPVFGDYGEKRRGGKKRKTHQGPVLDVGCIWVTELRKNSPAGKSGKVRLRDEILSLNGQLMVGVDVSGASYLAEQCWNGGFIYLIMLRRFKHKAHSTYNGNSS

PDZD2_5, O15018 = molecular target: T5, PDZD2_5, O15018
T5 sequence (O15018 2617-2716, limits assumed, looked up): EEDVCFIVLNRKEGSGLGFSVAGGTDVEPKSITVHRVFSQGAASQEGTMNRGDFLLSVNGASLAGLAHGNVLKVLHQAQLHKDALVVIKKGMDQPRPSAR

PDZD7_1, Q9H5P4 = molecular target: T6, PDZD7_1, Q9H5P4
T6 sequence (Q9H5P4 81-178, limits assumed, looked up): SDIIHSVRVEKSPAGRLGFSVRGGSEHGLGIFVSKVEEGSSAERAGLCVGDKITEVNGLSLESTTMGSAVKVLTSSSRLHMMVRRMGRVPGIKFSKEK

PDZD8, Q8NEN9 = molecular target: T7, PDZD8, Q8NEN9
T7 sequence (Q8NEN9 361-459, limits assumed, looked up): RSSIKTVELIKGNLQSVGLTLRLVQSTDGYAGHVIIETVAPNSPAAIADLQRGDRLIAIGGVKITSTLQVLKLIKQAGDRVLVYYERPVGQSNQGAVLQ

PDZRN3_2, Q9UPQ7 = molecular target: T8, PDZRN3_2, Q9UPQ7
T8 sequence (Q9UPQ7 414-513, limits assumed, looked up): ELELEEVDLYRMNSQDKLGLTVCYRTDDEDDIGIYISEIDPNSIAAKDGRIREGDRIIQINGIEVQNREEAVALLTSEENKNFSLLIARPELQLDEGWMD

PTPN13_2, Q12923 = molecular target: PTPN13_2, Q12923
PTPN13_5, Q12923 = molecular target: T9, PTPN13_5, Q12923
T9 sequence (Q12923 1877-1975, limits assumed, looked up): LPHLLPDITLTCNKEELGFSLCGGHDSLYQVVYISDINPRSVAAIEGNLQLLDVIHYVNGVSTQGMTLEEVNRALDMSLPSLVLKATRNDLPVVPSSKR

PTPN4, P29074 = molecular target: T10, PTPN4, P29074
T10 sequence (P29074 512-599, limits assumed, looked up): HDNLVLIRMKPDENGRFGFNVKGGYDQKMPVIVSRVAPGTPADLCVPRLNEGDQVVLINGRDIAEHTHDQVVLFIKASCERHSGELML

RGS3, P49796-9 = molecular target: RGS3, P49796-9
RIMS1, Q86UR5 = molecular target: RIMS1, Q86UR5
SHROOM2, Q13796 = molecular target: T11, SHROOM2, Q13796
T11 sequence (Q13796 21-118, limits assumed, looked up): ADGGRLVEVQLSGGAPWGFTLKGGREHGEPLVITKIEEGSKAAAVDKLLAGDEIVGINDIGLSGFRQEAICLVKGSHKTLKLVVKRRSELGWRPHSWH

TJP3_1, O95049 = molecular target: T12, TJP3_1, O95049
T12 sequence (O95049 6-103, limits assumed, looked up): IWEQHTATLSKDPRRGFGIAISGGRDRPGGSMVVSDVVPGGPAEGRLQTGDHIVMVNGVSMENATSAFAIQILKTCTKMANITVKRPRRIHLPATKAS

USH1C_1, Q9Y6N9 = molecular target: T13, USH1C_1, Q9Y6N9
T13 sequence (Q9Y6N9 82-179, limits assumed, looked up): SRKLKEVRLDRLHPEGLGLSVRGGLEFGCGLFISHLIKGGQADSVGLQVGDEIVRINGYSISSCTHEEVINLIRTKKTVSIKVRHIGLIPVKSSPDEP

[1] = plain residues with an end cap or a label only (N-terminal biotin on a linker: ttds)
[2] = plain residues with an end cap or a label only (N-terminal biotin on a linker: none)

Measured: pKd

Sequence of MAST3, O60307 (O60307 945-1048): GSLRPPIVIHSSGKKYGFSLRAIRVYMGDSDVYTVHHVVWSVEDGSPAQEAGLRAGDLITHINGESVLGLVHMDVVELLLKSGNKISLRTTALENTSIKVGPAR
Sequence of PARD3B_2, Q8TEW8 (Q8TEW8 376-471): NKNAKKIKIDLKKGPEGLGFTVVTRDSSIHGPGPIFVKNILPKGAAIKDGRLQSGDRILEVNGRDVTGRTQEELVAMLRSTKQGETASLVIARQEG
Sequence of NHERF4_3, Q86UT5 (Q86UT5 325-412): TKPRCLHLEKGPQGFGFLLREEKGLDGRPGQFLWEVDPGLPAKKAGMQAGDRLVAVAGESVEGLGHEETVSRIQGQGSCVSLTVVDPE
Sequence of RGS3, P49796-9 (P49796 other isoform, or with tags, fused parts or gaps): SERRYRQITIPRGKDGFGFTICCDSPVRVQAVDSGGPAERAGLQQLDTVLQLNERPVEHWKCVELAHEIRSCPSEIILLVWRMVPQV
Sequence of MAGI3_4, Q5TCQ9 (Q5TCQ9 716-815): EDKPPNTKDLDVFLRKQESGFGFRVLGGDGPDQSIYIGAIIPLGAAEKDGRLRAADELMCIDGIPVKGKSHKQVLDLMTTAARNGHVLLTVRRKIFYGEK
Sequence of IL16_2, Q14005 (Q14005 350-450): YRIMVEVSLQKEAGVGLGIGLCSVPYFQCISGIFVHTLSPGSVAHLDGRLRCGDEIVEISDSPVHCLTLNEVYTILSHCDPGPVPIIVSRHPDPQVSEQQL
Sequence of MAGIX, Q9H6Y5 (Q9H6Y5 118-211): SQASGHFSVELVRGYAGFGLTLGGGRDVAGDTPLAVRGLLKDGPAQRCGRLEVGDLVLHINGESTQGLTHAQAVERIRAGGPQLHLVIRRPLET
Sequence of RIMS1, Q86UR5 (Q86UR5 584-692): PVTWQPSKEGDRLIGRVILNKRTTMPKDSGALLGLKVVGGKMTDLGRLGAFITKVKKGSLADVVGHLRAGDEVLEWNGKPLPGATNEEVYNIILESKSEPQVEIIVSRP
Sequence of NHERF2_1, Q15599 (Q15599 9-91): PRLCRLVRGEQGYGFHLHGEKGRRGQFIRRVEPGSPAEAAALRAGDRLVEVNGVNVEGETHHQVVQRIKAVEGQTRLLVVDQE
Sequence of PTPN13_2, Q12923 (Q12923 1363-1462): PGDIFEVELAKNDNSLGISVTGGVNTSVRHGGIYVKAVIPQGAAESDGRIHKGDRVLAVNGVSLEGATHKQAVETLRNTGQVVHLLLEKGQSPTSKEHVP
Sequence of DVL2, O14641 (O14641 260-359): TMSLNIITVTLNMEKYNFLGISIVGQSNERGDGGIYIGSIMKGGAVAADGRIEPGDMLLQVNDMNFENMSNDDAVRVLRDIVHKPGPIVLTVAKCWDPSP

DPLTPSRSQL [DGKK, Q5KSL6]
4.14: DVL2, O14641; [1]
4.11: PDZRN3_2, Q9UPQ7; [1]
below the threshold: IL16_2, Q14005; [1] | MAGI3_4, Q5TCQ9; [1] | MAGIX, Q9H6Y5; [1] | MAST3, O60307; [1] | MPDZ_3, O75970; [1] | MPP1, Q00013; [1] | NHERF2_1, Q15599; [1] | NHERF3_2, Q5T2W1; [1] | NHERF4_3, Q86UT5; [1] | PARD3B_2, Q8TEW8; [1] | PDZD2_1, O15018; [1] | PDZD2_5, O15018; [1] | PDZD7_1, Q9H5P4; [1] | PDZD8, Q8NEN9; [1] | PTPN13_5, Q12923; [1] | PTPN4, P29074; [1] | RGS3, P49796-9; [1] | RIMS1, Q86UR5; [1] | SHROOM2, Q13796; [1] | TJP3_1, O95049; [1] | USH1C_1, Q9Y6N9; [1]
4.4: PTPN13_2, Q12923; [1]

DSKPPLPPDEWV [MERS-E, K9N5R3]
4.19: TJP3_1, O95049; [2]
4.35: PTPN13_2, Q12923; [2]
4.38: RIMS1, Q86UR5; [2]
4.67: RGS3, P49796-9; [2]
below the threshold: DVL2, O14641; [2] | IL16_2, Q14005; [2] | MAGI3_4, Q5TCQ9; [2] | MAGIX, Q9H6Y5; [2] | MAST3, O60307; [2] | MPDZ_3, O75970; [2] | MPP1, Q00013; [2] | NHERF2_1, Q15599; [2] | NHERF3_2, Q5T2W1; [2] | NHERF4_3, Q86UT5; [2] | PARD3B_2, Q8TEW8; [2] | PDZD2_1, O15018; [2] | PDZD2_5, O15018; [2] | PDZD7_1, Q9H5P4; [2] | PDZD8, Q8NEN9; [2] | PDZRN3_2, Q9UPQ7; [2] | PTPN13_5, Q12923; [2] | PTPN4, P29074; [2] | SHROOM2, Q13796; [2] | USH1C_1, Q9Y6N9; [2]

HRTCYLVTQL [ASIC3, Q9UHC3]
4.4: MPP1, Q00013; [1]
4.04: MAST3, O60307; [1] | MPDZ_3, O75970; [1]
4.56: NHERF2_1, Q15599; [1]
4.33: NHERF3_2, Q5T2W1; [1]
4.32: RGS3, P49796-9; [1]
below the threshold: DVL2, O14641; [1] | IL16_2, Q14005; [1] | MAGI3_4, Q5TCQ9; [1] | MAGIX, Q9H6Y5; [1] | PARD3B_2, Q8TEW8; [1] | PDZD2_1, O15018; [1] | PDZD2_5, O15018; [1] | PDZD7_1, Q9H5P4; [1] | PDZD8, Q8NEN9; [1] | PDZRN3_2, Q9UPQ7; [1] | PTPN13_2, Q12923; [1] | PTPN13_5, Q12923; [1] | PTPN4, P29074; [1] | RIMS1, Q86UR5; [1] | SHROOM2, Q13796; [1] | TJP3_1, O95049; [1] | USH1C_1, Q9Y6N9; [1]
4.13: NHERF4_3, Q86UT5; [1]

RTRQRNETQV [HPV51-E6, P26554]
4.16: PDZRN3_2, Q9UPQ7; [1]
5.81: MPP1, Q00013; [1]
4.39: PARD3B_2, Q8TEW8; [1]
below the threshold: IL16_2, Q14005; [1] | MAGI3_4, Q5TCQ9; [1] | MAGIX, Q9H6Y5; [1] | MAST3, O60307; [1] | MPDZ_3, O75970; [1] | NHERF2_1, Q15599; [1] | NHERF3_2, Q5T2W1; [1] | NHERF4_3, Q86UT5; [1] | PDZD2_1, O15018; [1] | PDZD2_5, O15018; [1] | PDZD7_1, Q9H5P4; [1] | PDZD8, Q8NEN9; [1] | PTPN13_2, Q12923; [1] | PTPN13_5, Q12923; [1] | PTPN4, P29074; [1] | RGS3, P49796-9; [1] | RIMS1, Q86UR5; [1] | SHROOM2, Q13796; [1] | TJP3_1, O95049; [1] | USH1C_1, Q9Y6N9; [1]
4.59: DVL2, O14641; [1]
